The values that follow come from PMC5435312, “DNA recognition by an RNA-guided bacterial Argonaute”.

This series has as its target T1, MpAgo D516A (Marinitoga piezophila, UniProt H2J4R4 1-639, D516A).
T1 sequence: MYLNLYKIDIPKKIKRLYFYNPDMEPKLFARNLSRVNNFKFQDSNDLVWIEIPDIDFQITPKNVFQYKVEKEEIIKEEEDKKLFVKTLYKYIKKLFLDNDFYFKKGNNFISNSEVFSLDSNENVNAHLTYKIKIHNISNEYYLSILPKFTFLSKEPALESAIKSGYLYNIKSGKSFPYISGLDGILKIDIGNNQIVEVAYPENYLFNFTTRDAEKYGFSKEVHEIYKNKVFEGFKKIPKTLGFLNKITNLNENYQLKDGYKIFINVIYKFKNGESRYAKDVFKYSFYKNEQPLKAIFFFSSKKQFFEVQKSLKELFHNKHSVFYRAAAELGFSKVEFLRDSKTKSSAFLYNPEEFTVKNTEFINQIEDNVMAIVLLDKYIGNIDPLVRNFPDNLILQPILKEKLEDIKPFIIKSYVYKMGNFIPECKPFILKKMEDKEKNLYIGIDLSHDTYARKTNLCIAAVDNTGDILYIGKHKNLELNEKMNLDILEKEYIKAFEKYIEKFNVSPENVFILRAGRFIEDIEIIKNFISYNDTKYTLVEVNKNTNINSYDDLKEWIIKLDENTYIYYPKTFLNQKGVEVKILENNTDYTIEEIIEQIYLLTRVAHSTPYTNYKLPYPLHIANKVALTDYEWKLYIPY
Nature of the series: X-ray crystallography (3.2 A); 0.1 M MES pH 7.0, 275 mM KI, 27% PEG 4000; guide RNA 1.2x, target equimolar to guide; Crystallization: 0.1 M MES pH 7.0, 275 mM KI, 27% (w/v) PEG 4000, 18 C; protein about 3.5 mg/ml in complex; mismatch guides assayed by cleavage only (no binding read-out). The conditions noted are these: protein: recombinant; tags: His10-Asn10-MBP tag removed by PreScission protease; 21 nt guide and 21 nt target, fully complementary; in the complex guide nt 1 and target C21 are unpaired, 20 bp modeled.

B1: 21 nt RNA guide / 21 nt DNA target (DNA:RNA)
RNA: GGUACAACCUACUACCUCAUU
DNA: AATGAGGTAGTAGGTTGTACC
modifications: 5'-OH RNA guide; 5'-phosphate DNA target
As for B1, the binding result is recorded as “binds”.
